Assay results taken from the supplement of paper PMC9112550, “Optimization of the antimicrobial peptide Bac7 by deep mutational scanning” (BMC Biology, 2022).

Test system: Escherichia coli TOP10
Assay: shrunken log2 fold change of peptide-encoding DNA abundance (4.5 h post-induction vs induction); higher = less antimicrobial activity (less host growth inhibition)
Conditions: time post-induction: 4.5 h; library: site-saturation at positions 5, 18, 19, 20
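Further: peptides expressed intracellularly from a pBAD plasmid library in pooled LB shake-flask culture, induced with 0.3% L-arabinose, DNA abundance read by NGS, three biological replicates, DESeq2 with apeglm shrinkage.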

For RRIRDRPPRLPRPRPRPVSVPRP, the “shrunken log2 fold change” value was -0.0329.

In the case of RRIRQRPPRLPRPRPRPWHRPRP, the “shrunken log2 fold change” value is reported as -0.0346.

With RRIRARPPRLPRPRPRPYYNPRP the “shrunken log2 fold change” value was -0.97.

In the case of RRIRQRPPRLPRPRPRPCGTPRP, the “shrunken log2 fold change” value is reported as 0.0105.

RRIRSRPPRLPRPRPRPVLFPRP was tested, and the “shrunken log2 fold change” value was -0.0544.

For RRIRRRPPRLPRPRPRPYSHPRP, the “shrunken log2 fold change” value was -0.528.

For RRIRKRPPRLPRPRPRPACIPRP, the “shrunken log2 fold change” value was 0.031.

With RRIRIRPPRLPRPRPRPLGVPRP the “shrunken log2 fold change” value was -0.0767.

RRIRKRPPRLPRPRPRPFDCPRP was tested, and the “shrunken log2 fold change” value was -0.128.

In the case of RRIRARPPRLPRPRPRPTLIPRP, the “shrunken log2 fold change” value is reported as 0.573.

RRIRGRPPRLPRPRPRPSQAPRP was tested, and the “shrunken log2 fold change” value was 0.612.

With RRIRPRPPRLPRPRPRPWECPRP the “shrunken log2 fold change” value was -0.0846.

RRIRWRPPRLPRPRPRPVVAPRP was tested, and the “shrunken log2 fold change” value was 0.28.

In the case of RRIRCRPPRLPRPRPRPCTTPRP, the “shrunken log2 fold change” value is reported as -0.427.

For RRIRLRPPRLPRPRPRPEEAPRP, the “shrunken log2 fold change” value was 0.495.

With RRIRSRPPRLPRPRPRPEKPPRP the “shrunken log2 fold change” value was 0.014.

With RRIRQRPPRLPRPRPRPVLTPRP the “shrunken log2 fold change” value was 0.0694.

For RRIRIRPPRLPRPRPRPAEDPRP, the “shrunken log2 fold change” value was -0.0521.

RRIRNRPPRLPRPRPRPRTCPRP was tested, and the “shrunken log2 fold change” value was -0.257.

For RRIRCRPPRLPRPRPRPHTYPRP, the “shrunken log2 fold change” value was -0.578.

In the case of RRIRDRPPRLPRPRPRPAQMPRP, the “shrunken log2 fold change” value is reported as 1.2.

For RRIRTRPPRLPRPRPRPEIAPRP, the “shrunken log2 fold change” value was -0.11.

RRIRKRPPRLPRPRPRPHDRPRP was tested, and the “shrunken log2 fold change” value was 0.29.

RRIRNRPPRLPRPRPRPMWHPRP was tested, and the “shrunken log2 fold change” value was -0.404.

In the case of RRIRIRPPRLPRPRPRPCWDPRP, the “shrunken log2 fold change” value is reported as -0.0479.

RRIRCRPPRLPRPRPRPVNSPRP was tested, and the “shrunken log2 fold change” value was -0.418.

RRIRGRPPRLPRPRPRPCWMPRP was tested, and the “shrunken log2 fold change” value was 0.301.

In the case of RRIRPRPPRLPRPRPRPNETPRP, the “shrunken log2 fold change” value is reported as 0.0335.

With RRIRKRPPRLPRPRPRPTENPRP the “shrunken log2 fold change” value was 0.143.

RRIRVRPPRLPRPRPRPCPPPRP was tested, and the “shrunken log2 fold change” value was -0.216.

RRIRDRPPRLPRPRPRPMKTPRP was tested, and the “shrunken log2 fold change” value was -0.00973.

For RRIRCRPPRLPRPRPRPIQLPRP, the “shrunken log2 fold change” value was -0.0847.

For RRIRARPPRLPRPRPRPSKSPRP, the “shrunken log2 fold change” value was 0.0305.

In the case of RRIRIRPPRLPRPRPRPREAPRP, the “shrunken log2 fold change” value is reported as 0.0165.

In the case of RRIRRRPPRLPRPRPRPKDQPRP, the “shrunken log2 fold change” value is reported as 0.26.

For RRIRVRPPRLPRPRPRPRFQPRP, the “shrunken log2 fold change” value was 0.129.

With RRIRDRPPRLPRPRPRPTCFPRP the “shrunken log2 fold change” value was 0.0704.

With RRIRDRPPRLPRPRPRPGKPPRP the “shrunken log2 fold change” value was 0.0599.

In the case of RRIRTRPPRLPRPRPRPECHPRP, the “shrunken log2 fold change” value is reported as -0.247.

With RRIRFRPPRLPRPRPRPGMVPRP the “shrunken log2 fold change” value was -0.0783.

For RRIRLRPPRLPRPRPRPRVSPRP, the “shrunken log2 fold change” value was -0.0787.

With RRIRERPPRLPRPRPRPVYMPRP the “shrunken log2 fold change” value was -0.481.

In the case of RRIRHRPPRLPRPRPRPWQSPRP, the “shrunken log2 fold change” value is reported as -0.0359.

With RRIRRRPPRLPRPRPRPRTNPRP the “shrunken log2 fold change” value was 0.482.

In the case of RRIRTRPPRLPRPRPRPENNPRP, the “shrunken log2 fold change” value is reported as -0.267.

In the case of RRIRYRPPRLPRPRPRPNCQPRP, the “shrunken log2 fold change” value is reported as -0.0282.

For RRIRQRPPRLPRPRPRPHKEPRP, the “shrunken log2 fold change” value was 0.114.

For RRIRIRPPRLPRPRPRPAFLPRP, the “shrunken log2 fold change” value was -0.279.

With RRIRFRPPRLPRPRPRPETHPRP the “shrunken log2 fold change” value was -0.0779.

RRIRQRPPRLPRPRPRPVTTPRP was tested, and the “shrunken log2 fold change” value was 0.0606.

In the case of RRIRKRPPRLPRPRPRPYNTPRP, the “shrunken log2 fold change” value is reported as -0.339.

For RRIRLRPPRLPRPRPRPNRDPRP, the “shrunken log2 fold change” value was -0.124.

In the case of RRIRNRPPRLPRPRPRPMNWPRP, the “shrunken log2 fold change” value is reported as 0.127.

In the case of RRIRYRPPRLPRPRPRPRIYPRP, the “shrunken log2 fold change” value is reported as -0.569.

RRIRFRPPRLPRPRPRPYTEPRP was tested, and the “shrunken log2 fold change” value was -0.631.

In the case of RRIRDRPPRLPRPRPRPYTQPRP, the “shrunken log2 fold change” value is reported as -0.165.

RRIRARPPRLPRPRPRPLNMPRP was tested, and the “shrunken log2 fold change” value was -0.502.

RRIRGRPPRLPRPRPRPSMTPRP was tested, and the “shrunken log2 fold change” value was 2.35.

With RRIRNRPPRLPRPRPRPTGMPRP the “shrunken log2 fold change” value was 0.236.

For RRIRIRPPRLPRPRPRPVPFPRP, the “shrunken log2 fold change” value was -0.264.

For RRIRERPPRLPRPRPRPRPLPRP, the “shrunken log2 fold change” value was 0.176.

RRIRPRPPRLPRPRPRPRCLPRP was tested, and the “shrunken log2 fold change” value was -0.0858.

In the case of RRIRVRPPRLPRPRPRPPKLPRP, the “shrunken log2 fold change” value is reported as 0.0622.

For RRIRYRPPRLPRPRPRPEKRPRP, the “shrunken log2 fold change” value was 0.00709.

In the case of RRIRSRPPRLPRPRPRPIQQPRP, the “shrunken log2 fold change” value is reported as -0.0226.

RRIRMRPPRLPRPRPRPRFTPRP was tested, and the “shrunken log2 fold change” value was 0.323.

With RRIRQRPPRLPRPRPRPIAEPRP the “shrunken log2 fold change” value was -0.103.

For RRIRCRPPRLPRPRPRPPCIPRP, the “shrunken log2 fold change” value was 0.0428.

In the case of RRIRGRPPRLPRPRPRPILFPRP, the “shrunken log2 fold change” value is reported as 0.257.

With RRIRVRPPRLPRPRPRPSVGPRP the “shrunken log2 fold change” value was -0.659.

RRIRARPPRLPRPRPRPHKNPRP was tested, and the “shrunken log2 fold change” value was 0.0543.

With RRIRQRPPRLPRPRPRPGLVPRP the “shrunken log2 fold change” value was 0.18.

In the case of RRIRHRPPRLPRPRPRPLWFPRP, the “shrunken log2 fold change” value is reported as -0.00823.

With RRIRPRPPRLPRPRPRPQRCPRP the “shrunken log2 fold change” value was -0.0388.

RRIRIRPPRLPRPRPRPITGPRP was tested, and the “shrunken log2 fold change” value was -0.0492.

In the case of RRIRTRPPRLPRPRPRPYWNPRP, the “shrunken log2 fold change” value is reported as -0.343.

In the case of RRIRRRPPRLPRPRPRPRYCPRP, the “shrunken log2 fold change” value is reported as 0.216.

With RRIRSRPPRLPRPRPRPPIEPRP the “shrunken log2 fold change” value was 0.314.

With RRIRERPPRLPRPRPRPKWWPRP the “shrunken log2 fold change” value was 0.397.

For RRIRIRPPRLPRPRPRPVNTPRP, the “shrunken log2 fold change” value was -1.06.

With RRIRHRPPRLPRPRPRPWSDPRP the “shrunken log2 fold change” value was -0.138.

With RRIRSRPPRLPRPRPRPCIKPRP the “shrunken log2 fold change” value was -0.0801.

For RRIRNRPPRLPRPRPRPKPLPRP, the “shrunken log2 fold change” value was -0.102.

For RRIRVRPPRLPRPRPRPHHSPRP, the “shrunken log2 fold change” value was -0.593.

For RRIRSRPPRLPRPRPRPSNEPRP, the “shrunken log2 fold change” value was -0.476.

For RRIRPRPPRLPRPRPRPKSHPRP, the “shrunken log2 fold change” value was -0.246.

With RRIRCRPPRLPRPRPRPWNLPRP the “shrunken log2 fold change” value was -0.19.

For RRIRNRPPRLPRPRPRPTDHPRP, the “shrunken log2 fold change” value was -0.383.

With RRIRQRPPRLPRPRPRPRFIPRP the “shrunken log2 fold change” value was -0.398.

For RRIRERPPRLPRPRPRPNRWPRP, the “shrunken log2 fold change” value was 0.0283.

In the case of RRIRTRPPRLPRPRPRPFLQPRP, the “shrunken log2 fold change” value is reported as 0.0237.

With RRIRFRPPRLPRPRPRPCLHPRP the “shrunken log2 fold change” value was -0.542.

In the case of RRIRRRPPRLPRPRPRPHVSPRP, the “shrunken log2 fold change” value is reported as -0.0166.

In the case of RRIRFRPPRLPRPRPRPASKPRP, the “shrunken log2 fold change” value is reported as 0.0916.

With RRIRNRPPRLPRPRPRPIPAPRP the “shrunken log2 fold change” value was -0.0451.

For RRIRDRPPRLPRPRPRPYMWPRP, the “shrunken log2 fold change” value was 0.0589.

With RRIRHRPPRLPRPRPRPENAPRP the “shrunken log2 fold change” value was 0.14.

RRIRNRPPRLPRPRPRPPPTPRP was tested, and the “shrunken log2 fold change” value was 0.867.

For RRIRIRPPRLPRPRPRPNVPPRP, the “shrunken log2 fold change” value was 0.0631.

With RRIRKRPPRLPRPRPRPLFNPRP the “shrunken log2 fold change” value was 0.0323.

For RRIRCRPPRLPRPRPRPRPHPRP, the “shrunken log2 fold change” value was 0.211.

In the case of RRIRNRPPRLPRPRPRPRGFPRP, the “shrunken log2 fold change” value is reported as 0.443.

In the case of RRIRRRPPRLPRPRPRPEMSPRP, the “shrunken log2 fold change” value is reported as 0.0923.

In the case of RRIRGRPPRLPRPRPRPETTPRP, the “shrunken log2 fold change” value is reported as 2.32.

With RRIRGRPPRLPRPRPRPRSFPRP the “shrunken log2 fold change” value was -0.0397.

RRIRIRPPRLPRPRPRPFRYPRP was tested, and the “shrunken log2 fold change” value was -0.42.
